Where a SMILES comes first, the peptide text is derived from it. Bridges are numbered along the chain shown (N, C = ends). [ ]: non-standard residue; d: D form. Nle = CCCC[C@H](N)C(=O)O
How the values were obtained:
[1] = molecular target: T1, human Kv1.6 (Homo sapiens, UniProt P17658); experiment: cell-based; details: ratio of patch clamp IC50 values
T1 construct: expressed in transfected cells; host or cells: CHO

[2] = molecular target: T2, human Kv1.1 (Homo sapiens, UniProt Q09470); experiment: cell-based; details: ratio of patch clamp IC50 values
T2 construct: expressed in transfected cells; host or cells: CHO

[3] = Pharmacokinetic characterisation according to example 6 of PCT/EP2020/076187; details: in vivo; dose 70 nmol/kg
Description: The pharmacokinetic characterization of compound 14 were performed according to the method described in example 6 of international patent application PCT/EP2020/076187.

[4] = molecular target: Rat whole blood (Rattus norvegicus, UniProt P15384); assay type: cell-based; details: IL-17A release, thapsigargin, 24 Hr, at least 2 replicates
[5] = molecular target: T3, human Kv1.2 (Homo sapiens, UniProt P16389); experiment: cell-based; details: ratio of patch clamp IC50 values
T3 construct: expressed in transfected cells; host or cells: CHO

[6] = molecular target: human Kv1.1 potassium ion channel (human) (UniProt Q09470); experiment: cell-based or functional assay
[7] = molecular target: human Kv1.2 potassium ion channel (human) (UniProt P16389); experiment: cell-based or functional assay
[8] = molecular target: human Kv1.6 potassium ion channel (human) (UniProt P17658); experiment: cell-based or functional assay
[9] = molecular target: human Kv1.3 (potassium voltage-gated channel subfamily A member 3) (human) (UniProt P22001); experiment: cell-based or functional assay
[10] = molecular target: human Kv1.3 voltage-gated K+ channel (potassium voltage-gated channel subfamily A member 3) (human) (UniProt P22001); experiment: cell-based or functional assay
human Kv1.3 voltage-gated K+ channel (potassium voltage-gated channel subfamily A member 3) (human), sequence (P22001 whole entry): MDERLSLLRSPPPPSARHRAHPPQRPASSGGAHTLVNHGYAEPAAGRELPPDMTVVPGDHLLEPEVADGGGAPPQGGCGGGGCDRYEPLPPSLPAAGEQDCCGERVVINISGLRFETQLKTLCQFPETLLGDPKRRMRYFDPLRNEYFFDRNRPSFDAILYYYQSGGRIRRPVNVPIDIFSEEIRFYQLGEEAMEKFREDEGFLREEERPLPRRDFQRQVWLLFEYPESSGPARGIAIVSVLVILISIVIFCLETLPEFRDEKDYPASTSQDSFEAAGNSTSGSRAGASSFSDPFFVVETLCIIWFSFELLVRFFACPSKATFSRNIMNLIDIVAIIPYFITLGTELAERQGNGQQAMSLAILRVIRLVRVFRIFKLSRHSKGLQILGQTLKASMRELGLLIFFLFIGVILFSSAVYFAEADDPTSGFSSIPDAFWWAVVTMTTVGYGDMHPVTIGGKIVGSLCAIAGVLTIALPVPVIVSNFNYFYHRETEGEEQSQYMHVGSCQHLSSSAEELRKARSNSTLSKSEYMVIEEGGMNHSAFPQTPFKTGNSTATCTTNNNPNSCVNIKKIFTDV

human Kv1.2 potassium ion channel (human), sequence (P16389 whole entry): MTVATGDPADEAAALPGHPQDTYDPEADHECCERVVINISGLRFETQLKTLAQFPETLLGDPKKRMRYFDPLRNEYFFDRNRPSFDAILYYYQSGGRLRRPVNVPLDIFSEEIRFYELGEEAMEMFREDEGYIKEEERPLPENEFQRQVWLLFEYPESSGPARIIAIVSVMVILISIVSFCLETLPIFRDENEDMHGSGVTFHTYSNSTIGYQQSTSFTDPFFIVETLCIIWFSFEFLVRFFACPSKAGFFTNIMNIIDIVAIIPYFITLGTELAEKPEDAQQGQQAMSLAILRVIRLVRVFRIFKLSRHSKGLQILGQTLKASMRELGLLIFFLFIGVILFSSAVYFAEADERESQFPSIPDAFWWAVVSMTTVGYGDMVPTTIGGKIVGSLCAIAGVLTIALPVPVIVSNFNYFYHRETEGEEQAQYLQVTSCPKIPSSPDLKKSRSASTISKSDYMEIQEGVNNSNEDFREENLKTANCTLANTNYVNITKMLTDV
human Kv1.6 potassium ion channel (human), sequence (P17658 whole entry): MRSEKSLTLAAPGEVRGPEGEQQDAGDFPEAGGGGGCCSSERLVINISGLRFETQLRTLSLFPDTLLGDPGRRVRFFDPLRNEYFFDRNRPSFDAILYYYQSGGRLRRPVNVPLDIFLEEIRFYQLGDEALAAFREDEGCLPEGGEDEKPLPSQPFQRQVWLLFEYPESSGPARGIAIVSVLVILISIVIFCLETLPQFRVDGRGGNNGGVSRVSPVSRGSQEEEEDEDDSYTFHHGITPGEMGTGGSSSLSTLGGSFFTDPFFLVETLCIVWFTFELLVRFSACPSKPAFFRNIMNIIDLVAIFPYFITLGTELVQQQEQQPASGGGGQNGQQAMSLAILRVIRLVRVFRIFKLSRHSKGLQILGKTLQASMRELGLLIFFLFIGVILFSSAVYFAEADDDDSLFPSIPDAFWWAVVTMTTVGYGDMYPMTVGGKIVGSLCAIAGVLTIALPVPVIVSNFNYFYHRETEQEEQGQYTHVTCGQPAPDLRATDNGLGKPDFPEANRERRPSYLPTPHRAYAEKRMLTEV
human Kv1.3 (potassium voltage-gated channel subfamily A member 3) (human), sequence (P22001 whole entry): as the sequence (P22001 whole entry) above
human Kv1.1 potassium ion channel (human), sequence (Q09470 whole entry): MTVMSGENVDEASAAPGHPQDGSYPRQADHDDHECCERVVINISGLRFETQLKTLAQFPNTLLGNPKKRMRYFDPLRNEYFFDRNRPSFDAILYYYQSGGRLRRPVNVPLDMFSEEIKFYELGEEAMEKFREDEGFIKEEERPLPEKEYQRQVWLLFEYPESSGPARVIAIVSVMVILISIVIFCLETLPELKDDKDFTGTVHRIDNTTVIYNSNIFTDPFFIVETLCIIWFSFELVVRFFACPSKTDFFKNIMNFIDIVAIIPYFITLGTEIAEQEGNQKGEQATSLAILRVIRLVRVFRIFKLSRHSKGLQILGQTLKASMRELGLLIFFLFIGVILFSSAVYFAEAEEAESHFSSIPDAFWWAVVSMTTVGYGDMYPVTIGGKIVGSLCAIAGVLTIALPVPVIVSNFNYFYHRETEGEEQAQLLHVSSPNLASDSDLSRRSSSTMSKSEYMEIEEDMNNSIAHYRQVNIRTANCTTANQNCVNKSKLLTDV
Rat whole blood, sequence (P15384 whole entry): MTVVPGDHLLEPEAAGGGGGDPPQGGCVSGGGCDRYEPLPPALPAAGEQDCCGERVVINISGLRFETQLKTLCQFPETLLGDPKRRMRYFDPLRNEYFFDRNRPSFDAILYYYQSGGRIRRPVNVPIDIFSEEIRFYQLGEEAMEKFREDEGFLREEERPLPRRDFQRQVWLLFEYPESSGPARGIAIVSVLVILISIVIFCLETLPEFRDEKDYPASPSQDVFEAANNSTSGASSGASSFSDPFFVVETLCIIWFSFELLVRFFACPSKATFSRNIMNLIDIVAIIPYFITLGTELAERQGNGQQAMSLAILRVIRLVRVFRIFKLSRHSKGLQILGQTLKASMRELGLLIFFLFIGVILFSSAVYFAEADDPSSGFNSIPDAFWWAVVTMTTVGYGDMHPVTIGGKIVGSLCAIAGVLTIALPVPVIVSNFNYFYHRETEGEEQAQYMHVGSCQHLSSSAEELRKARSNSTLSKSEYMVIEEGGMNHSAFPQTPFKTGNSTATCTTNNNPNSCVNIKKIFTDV
T3 sequence (P16389 whole entry): as the sequence (P16389 whole entry) above
T1 sequence (P17658 whole entry): as the sequence (P17658 whole entry) above
T2 sequence (Q09470 whole entry): as the sequence (Q09470 whole entry) above

Compound | Potency IC50 (nM) Kv1.1 [6] [nM] | Selectivity Kv1.1/Kv1.3 [6] | Potency IC50 (nM) Kv1.2 [7] [nM] | Selectivity Kv1.2/Kv1.3 [7] | Potency IC50 (nM) Kv1.6 [8] [nM] | Selectivity Kv1.6/Kv1.3 [8] | Potency IC50 (nM) Kv1.3 [9] [nM] | other results
CCCC[C@H](NC(=O)[C@@H]1CCCN1)C(=O)N[C@@H](CCC(=O)O)C(=O)N[C@@H](CCCC)C(=O)N[C@@H](CCCNC(=N)N)C(=O)N[C@H]1CSSC[C@@H]2NC(=O)[C@H](CCCCN)NC(=O)CNC(=O)[C@H](Cc3ccccc3)NC(=O)[C@H]([C@@H](C)CC)NC(=O)[C@H](CO)NC(=O)CNC(=O)[C@H]([C@@H](C)CC)NC(=O)[C@H](C)NC(=O)[C@H](C)NC(=O)[C@H](CC(C)C)NC(=O)[C@@H]3CSSC[C@@H](C(=O)N[C@@H](Cc4ccc(O)cc4)C(=O)N4CCC[C@H]4C(=O)N[C@@H](CCCNC(=N)N)C(N)=O)NC(=O)[C@H](CCCCN)NC(=O)[C@H](CSSC[C@H](NC(=O)[C@H](CCC(=O)O)NC(=O)[C@H](C(C)C)NC(=O)[C@H](CO)NC(=O)[C@H](C)NC(=O)[C@H](CO)NC1=O)C(=O)N[C@@H](CCCCN)C(=O)N[C@@H](CCC(N)=O)C(=O)N[C@@H](CCCCN)C(=O)N3)NC(=O)[C@H](CCCCN)NC(=O)[C@H](CCCCN)NC(=O)[C@H](CC(N)=O)NC(=O)[C@H](CCCC)NC2=O [compound 13] (H-P[Nle]E[Nle]RCSASVECKQKCLAAIGSIFGKC[Nle]NKKCKCYPR-NH2; disulfide 6-27, 12-32, 16-34) | – | – | – | – | – | – | – | Selectivity ratio Kv1.6/Kv1.3 [1]: >16200; Selectivity ratio Kv1.1/Kv1.3 [2]: >16200; AUC(0-inf) [3]: 0.0268 µM·h; Cmax [3]: 16.5 nM; half-life [3]: 1.7 h; IC50 [4]: 0.34 nM; Selectivity ratio Kv1.2/Kv1.3 [5]: 1689
Moka1 (peptide) | > 3000 | > 300 | 275 | 31 | > 3000 | > 300 | 9 | –
ShK (peptide) | – | – | 11 | – | 0.19 | – | 0.017 | –
ShK-186: H-[phosphotyrosyl][8-Amino-3,6-dioxaoctanoyl]…-NH2 (peptide) | – | – | – | – | – | – | – | IC50 of IL-2 release, anti-CD3 stimulated human PBMCs (Example 5b) [10]: 0.05 nM
Vm24 (peptide) | 0.097 | 0.65 | 4.7 | 31 | 21 | 139 | 0.15 | –

Reference: patent US20240182531A1, “KV1.3 Blockers” (priority 2021, published 2024)
